Experimental data reported in patent publication US20230364207A1.

Experiments:
trastuzumab = assay: cell-based or functional assay
[1] = molecular target: human IVIg (an intravenous human immunoglobulin)
[2] = molecular target: rabbit IgG (rabbit polyclonal IgG antibody 1 and 2)
[3] = molecular target: IgG in the sera of rabbits
[4] = molecular target: IgG1 in the sera of humans
[5] = molecular target: IgG in the sera of monkeys

## IdeE C-terminal truncated mutant WT_delC5 (enzyme)
trastuzumab
  cleavage activity on human IgG1 relative to wild-type IdeE (SDS-PAGE): > 2 fold

## IdeE C-terminal truncated mutant WT_delC10 (enzyme)
trastuzumab
  cleavage activity on human IgG1 relative to wild-type IdeE (SDS-PAGE): > 2 fold

## IdeE mutant A10K (enzyme)
trastuzumab
  Fold of activity relative to wild-type (ELISA-based human IgG1 cleavage): 1.99 fold

## IdeE mutant A10R (enzyme)
trastuzumab
  Fold of activity relative to wild-type (ELISA-based human IgG1 cleavage): 2.2 fold

## IdeE mutant A59I (enzyme)
trastuzumab
  Fold of activity relative to wild-type (ELISA-based human IgG1 cleavage): 2.31 fold

## IdeE mutant A59L (enzyme)
trastuzumab
  Fold of activity relative to wild-type (ELISA-based human IgG1 cleavage): 2.41 fold
  activity of cleaving human IgG1 relative to wild-type IdeE (SDS-PAGE): 2 fold

## IdeE mutant A59V (enzyme)
trastuzumab
  Fold of activity relative to wild-type (ELISA-based human IgG1 cleavage): 2.68 fold
  activity of cleaving human IgG1 relative to wild-type IdeE (SDS-PAGE): 2 fold

## IdeE mutant E97D (enzyme)
trastuzumab
  Fold of activity relative to wild-type (ELISA-based human IgG1 cleavage): 2 fold
  activity of cleaving human IgG1 relative to wild-type IdeE (SDS-PAGE): 2 fold

## IdeE mutant R280H (enzyme)
trastuzumab
  Fold of activity relative to wild-type (ELISA-based human IgG1 cleavage): 2.3 fold
  activity of cleaving human IgG1 relative to wild-type IdeE (SDS-PAGE): 2 fold

## IdeE mutant R280K (enzyme)
trastuzumab
  Fold of activity relative to wild-type (ELISA-based human IgG1 cleavage): 2.2 fold

## IdeE mutant T8D (enzyme)
trastuzumab
  Fold of activity relative to wild-type (ELISA-based human IgG1 cleavage): 2.21 fold
  activity of cleaving human IgG1 relative to wild-type IdeE (SDS-PAGE): 2 fold

## IdeE mutant T8E (enzyme)
trastuzumab
  Fold of activity relative to wild-type (ELISA-based human IgG1 cleavage): 2.09 fold

## IdeE mutant T8W (enzyme)
trastuzumab
  Fold of activity relative to wild-type (ELISA-based human IgG1 cleavage): 2.58 fold
  activity of cleaving human IgG1 relative to wild-type IdeE (SDS-PAGE): 2 fold

## IdeE mutant T8Y (enzyme)
trastuzumab
  Fold of activity relative to wild-type (ELISA-based human IgG1 cleavage): 2.3 fold

## IdeE mutant T24A (enzyme)
trastuzumab
  Fold of activity relative to wild-type (ELISA-based human IgG1 cleavage): 2.23 fold
  activity of cleaving human IgG1 relative to wild-type IdeE (SDS-PAGE): 2 fold

## IdeE mutant T24G (enzyme)
trastuzumab
  Fold of activity relative to wild-type (ELISA-based human IgG1 cleavage): 2.09 fold

## IdeE mutant T24S (enzyme)
trastuzumab
  Fold of activity relative to wild-type (ELISA-based human IgG1 cleavage): 2.18 fold

B1: IdeE combinatorial mutant E97D_del18 (protein)
chain: ITSVWTKGVTPLTPEQFRYNNEDVIHAPYLAHQGWYDITKAFDGKDNLLCGAATAGNMLHWWFDQNKTEIEAYLSKHPDKQKIIFNNQELFDLKAAIDTKDSQTNSQLFNYFRDKAFPNLSARQLGVMPDLVLDMFINGYYLNVFKTQSTDVNRPYQDKDKRGGIFDAVFTRGDQTTLLTARHDLKNKGLNDISTIIKQELTEGRALALSHTYANVSISHVINLWGADFNAEGNLEAIYVTDSDANASIGMKKYFVGINAHRHVAISAKKIEGENIGAQVLGLFTLSSGKDIWQKLSHHHHHH
IgG in the sera of rats
  cleavage of serum IgG of different species (SDS-PAGE): IgG in the sera of rats and mice was nearly uncleaved
IgG in the sera of pigs
  cleavage of serum IgG of different species (SDS-PAGE): IgG in the sera of pigs was cleaved more effectively
[1]
  cleavage of human IVIg in mouse serum and plasma in vitro (SDS-PAGE): E97D_del18 can effectively cleave human IVIg in both the sera and plasmas of mice
[2]
  cleavage of immunoglobulins of different species (SDS-PAGE): E97D_del18 can effectively cleave ... rabbit IgG
[3]
  cleavage of serum IgG of different species (SDS-PAGE): IgG in the sera of rabbits was cleaved most effectively
[4]
  cleavage in human serum in vitro (SDS-PAGE, 25 kD Fc fragment): E97D_del18 can effectively and specifically cleave IgG1 in the sera of humans
Dog IgG
  cleavage of immunoglobulins of different species (SDS-PAGE): E97D_del18 can effectively cleave dog IgG
  cleavage of serum IgG of different species (SDS-PAGE): E97D_del18 can effectively cleave IgG in the sera of rabbits, dogs and monkeys
[5]
  cleavage of serum IgG of different species (SDS-PAGE): E97D_del18 can effectively cleave IgG in the sera of rabbits, dogs and monkeys
IgG in the sera of mice
  cleavage in mouse serum in vitro (SDS-PAGE, 25 kD Fc fragment): has very low or no activity of cleaving IgG1 in the sera of mice
  cleavage of serum IgG of different species (SDS-PAGE): IgG in the sera of rats and mice was nearly uncleaved
